How the values were obtained:
Format in all cases: cell-based, human
[1] = system: day 3 early somite progenitors; assay: Patterning of early somite progenitors into sclerotome or dermomyotome
Protocol: Day 2 paraxial mesoderm was briefly washed (DMEM/F12) and further differentiated into day 3 early somite/somitomere precursors for 24 hours (1 μM A-83-01+250 nM LDN-193189+1 μM C59+500 nM PD0325901). Subsequently, day 3 early somites were dorsoventrally patterned into either ventral somites/sclerotome (5 nM 21K+1 μM C59) or dorsal somites/dermomyotome (3 μM CHIR99021+150 nM Vismodegib). Sclerotome induction was conducted for 48-72 hours (leading to day 5-6 ventral somite progenitors). […] Media was changed 24 hours for all steps. The Hedgehog agonist 21K, which has been previously described in, e.g., Brunton et al., 2009 the disclosure of which is incorporated herein by reference in its entirety, was commercially synthesized.
Day 3 early somites were briefly washed (DMEM/F12), treated with BMP4+CHIR99021+Vismodegib for 24 hours, washed again (DMEM/F12) and subsequently treated with CHIR99021 (3 μM)+21K (5 nM) for 24 hours. This day 5 dermomyotome was further empirically differentiated towards skeletal muscle-like progeny (using medium containing 2% horse serum, which has been previously described in, e.g., Xu et al. 2013, the disclosure of which is incorporated herein by reference in its entirety) for 12 days, yielding day 17 skeletal muscle-containing populations.
FIG. 11: A) To determine the length of time required for sclerotome differentiation, a qPCR timecourse was performed, encompassing undifferentiated hESCs (D0), day 2 hESC-derived paraxial mesoderm (D2 PXM), day 3 hESC-derived early somite progenitors, and hESC-derived day 3 early somite progenitors that were exposed to sclerotome inductive conditions (5 nM 21K+1 μM C59) for 24 or 48 hours. B) Description of EF1α-BCL2-T2A-GFP lentiviral construct (otherwise known as “C306”; top) and FACS plot of a stably-transduced polyclonal H9 hESC line with near-uniform expression of the BCL2-T2A-GFP transgene (green contour) by comparison to uncolored wild-type hESCs (bottom) (see above methods for details of derivation of the H9 BCL2-T2A-GFP hESC line). C) Higher-magnification picture of BCL2-T2A-GFP hESC-derived sclerotome ectopic bone grafts (originally described above in FIG. 4, panel E), showing that despite the near-ubiquitous expression of GFP throughout the ectopic bone graft (indicating its human provenance), the blood vessels are clearly GFP-negative and therefore presumably derived from the mouse host; scale bar=1 mm. […] L) Description of EF1a-BCL2-T2A-GFP lentiviral construct (otherwise known as “C306”; top) and FACS plot of a stably-transduced polyclonal H9 hESC line with near-uniform expression of the BCL2-T2A-GFP transgene (green contour) by comparison to uncolored wild-type hESCs (bottom) (see the methods described herein for details of derivation of the H9 BCL2-T2A-GFP hESC line). M) Description of UBC-Luciferase-T2A-tdTomato lentiviral construct (top); bioluminescent assay of cultured H9 UBC-Luciferase-T2A-tdTomato hESCs validates that these cells are luciferase-expressing in vitro (bottom).

[2] = system: day 5 hematopoietic intermediates; assay: Day 5-7 continued differentiation of hematopoietic intermediates, factor withholding
Protocol: (§1) SOX17^mCherry/+ H9 hESCs (referred to as SOX17-mCherry hESCs throughout this study) were routinely propagated in mTeSR1 (StemCell Technologies)+1% penicillin/streptomycin. They were passaged ˜1:12-1:25 as fine clumps using Accutase (Gibco) onto plates precoated with a Geltrex substratum (Gibco) in mTeSR1 medium supplemented with thiazovivin ([…]; a ROCK inhibitor). After overnight plating, hESCs were washed (DMEM/F12) and differentiated towards posterior PS using BMP4 (15-40 ng/mL, R&D Systems), CHIR99021 ([…]), FGF2 (20 ng/mL, Invitrogen) and PIK90 (100 nM, Calbiochem) for 24 hours, with the optional inclusion of Activin (30 ng/mL, R&D Systems) to induce mid PS. Day 1 mid or posterior PS was subsequently washed (DMEM/F12) and further differentiated using BMP4 (40 ng/mL), GDC-0941 (0.25-2.5 μM, Cellagen Technology), Forskolin (10 μM, Tocris), SB-505124 ([…]), VEGF (100 ng/mL, R&D Systems), XAV939 (1 μM, Tocris) and ascorbic acid-2-phosphate (200 μg/mL, Sigma) for 24 hours. Day 2 cultures were further directed into the definitive hematopoietic lineage/hemogenic precursors by Activin A (15 ng/mL), GDC-0941 (0.25-2.5 μM), VEGF (100 ng/mL), XAV939 (1 μM) and ascorbic acid-2-phosphate (200 μg/mL) for 24 hours. Day 3 definitive hematopoietic progenitors were subsequently differentiated into early Runx1^lowGfi1^low hemogenic intermediates through day 4-5 treatment with BMP4 (50 ng/mL), TTNPB (500 nM), VEGF (100 ng/mL) and XAV939 (1 μM) for 48 hours, supplemented with SB-505124 (2 μM) on day 5. Day 5 populations were then dissociated into single cells, counted and reaggregated in individual wells of a low-adhesion V-bottom or U-bottom 96-well plate (e.g., Thermo Fisher, catalog no. 249952) with ˜15,000-20,000 cells seeded per well. Aggregates were cultured for 48 additional hours until day 7 in BMP4 (50 ng/mL), TTNPB (500 nM), VEGF (100 ng/mL), XAV939 (1 μM), SB-505124 (2 μM), SCF (25-50 ng/mL, R&D Systems), IL6 (10 ng/mL, R&D Systems) and IL6RA (250-1000 ng/mL, R&D Systems). All differentiation was conducted in serum-free CDM2 fully-defined basal media.

SOX17-mCherry hESCs = assay: Hematopoietic mesoderm and SOX17+CD34+ hemogenic precursor specification
Protocol: as §1

[3] = system: day 3 hemogenic precursors; assay: Hemogenic precursors into day 5 hematopoietic intermediates; conditions: withdrawal of the factor from BMP, VEGF, XAV939, TTNPB
Protocol: as §1

Molecule: Cc1cnc(-c2cnc(NCCNc3ccc(C#N)cn3)nc2-c2ccc(Cl)cc2Cl)[nH]1 [CHIR99021, 6-[[2-[[4-(2,4-Dichlorophenyl)-5-(5-methyl-1H-imidazol-2-yl)-2-pyrimidinyl]amino]ethyl]amino]-3-pyridinecarbonitrile]
- dorsal somite marker PAX3 and sclerotome fate ([1]; CHIR together with Vismodegib): sustained dorsal somite marker PAX3 while inhibiting the sclerotome fate

Molecule: Cc1cccc(-c2[nH]c(C(C)(C)C)nc2-c2ccc3c(c2)OCO3)n1 [SB-505124, 2-[4-(1,3-Benzodioxol-5-yl)-2-(1,1-dimethylethyl)-1H-imidazol-5-yl]-6-methyl-pyridine]
- GFI1B expression ([2]; individually withholding the factor from the 8 factors, 48 hours): strongly diminished

B1: Activin: TGFβ agonist (protein, UniProt P08476 311-426, looked up)
Inhibin beta A chain: GLECDGKVNICCKKQFFVSFKDIGWNDWIIAPSGYHANYCEGECPSHIAGTSGSSLSFHSTVINHYRMRGHSPFANLKSCCVPTKLRPMSMLYYDDGQNIIKKDIQNMIVEECGCS
modifications: Inhibin beta A chain
notes: TGFβ agonist
- downstream ability to acquire hematopoietic fate (SOX17-mCherry hESCs; Activin 30 ng/mL during PS induction): significantly enhanced the downstream ability of cells to acquire hematopoietic fate
- SOX17+ cells formed by day 3 (SOX17-mCherry hESCs; treatment on day 2-3, 24 hours): doubled the generation of SOX17^+ cells

B2: BMP4: BMP family ligand, BMP agonist (protein, UniProt P12644 293-408, looked up)
Bone morphogenetic protein 4: SPKHHSQRARKKNKNCRRHSLYVDFSDVGWNDWIVAPPGYQAFYCHGDCPFPLADHLNSTNHAIVQTLVNSVNSSIPKACCVPTELSAISMLYLDEYDKVVLKNYQEMVVEGCGCR
- RUNX1 expression by day 5 [3]: crippled RUNX1 expression
- hematopoietic or venous gene expression ([2]; withdrawal of the factor): minimally effected hematopoietic or venous gene expression
- PAX7 expression ([1]; 3 μM CHIR99021+150 nM Vismodegib, 48 hours, BMP4 10 ng/mL): greatly enhances the expression of PAX7
- PAX7 induction in central dermomyotome ([1]; CHIR99021+Vismodegib+BMP4, 24 hours): important to induce PAX7 in central dermomyotome

From patent US10787640B2, “Producing mesodermal cell types and methods of using the same” (The Board of Trustees of the Leland Stanford Junior …, priority 2015, dated 2020)
